From article PMC4379501
One block for each binder: values may come before it.

Biological target: T1, cyclo[RGDfK] cell adhesive peptide, surface-bound, light-activated from c[RGD(DMNPB)fK]
T1 chain: RGDFK
Assay: QCM-D; cells (3 × 10^5 cells/ml) injected over a gold-coated quartz crystal carrying a c[RGD(DMNPB)fK]-terminated PEG-thiol SAM, sedimented in stopped flow, peptide activated in situ by LED (360 nm, 1.35 mW cm^-2, 30 s); Δf1 = frequency drop within the first minute after irradiation; 37°C, PBS; also with 10 μM cytochalasin D or 10 μM anti-αVβ3 antibody
Details: remark: other sources report otherwise

Δf1: 0.966 Hz
B1: integrin αVβ3 on human umbilical vein endothelial cells (HUVEC), P06756 31-1048; P05106 27-788 (receptor)
chain 1: FNLDVDSPAEYSGPEGSYFGFAVDFFVPSASSRMFLLVGAPKANTTQPGIVEGGQVLKCDWSSTRRCQPIEFDATGNRDYAKDDPLEFKSHQWFGASVRSKQDKILACAPLYHWRTEMKQEREPVGTCFLQDGTKTVEYAPCRSQDIDADGQGFCQGGFSIDFTKADRVLLGGPGSFYWQGQLISDQVAEIVSKYDPNVYSIKYNNQLATRTAQAIFDDSYLGYSVAVGDFNGDGIDDFVSGVPRAARTLGMVYIYDGKNMSSLYNFTGEQMAAYFGFSVAATDINGDDYADVFIGAPLFMDRGSDGKLQEVGQVSVSLQRASGDFQTTKLNGFEVFARFGSAIAPLGDLDQDGFNDIAIAAPYGGEDKKGIVYIFNGRSTGLNAVPSQILEGQWAARSMPPSFGYSMKGATDIDKNGYPDLIVGAFGVDRAILYRARPVITVNAGLEVYPSILNQDNKTCSLPGTALKVSCFNVRFCLKADGKGVLPRKLNFQVELLLDKLKQKGAIRRALFLYSRSPSHSKNMTISRGGLMQCEELIAYLRDESEFRDKLTPITIFMEYRLDYRTAADTTGLQPILNQFTPANISRQAHILLDCGEDNVCKPKLEVSVDSDQKKIYIGDDNPLTLIVKAQNQGEGAYEAELIVSIPLQADFIGVVRNNEALARLSCAFKTENQTRQVVCDLGNPMKAGTQLLAGLRFSVHQQSEMDTSVKFDLQIQSSNLFDKVSPVVSHKVDLAVLAAVEIRGVSSPDHVFLPIPNWEHKENPETEEDVGPVVQHIYELRNNGPSSFSKAMLHLQWPYKYNNNTLLYILHYDIDGPMNCTSDMEINPLRIKISSLQTTEKNDTVAGQGERDHLITKRDLALSEGDIHTLGCGVAQCLKIVCQVGRLDRGKSAILYVKSLLWTETFMNKENQNHSYSLKSSASFNVIEFPYKNLPIEDITNSTLVTTNVTWGIQPAPMPVPVWVIILAVLAGLLLLAVLVFVMYRMGFFKRVRPPQEEQEREQLQPHENGEGNSET
chain 2: GPNICTTRGVSSCQQCLAVSPMCAWCSDEALPLGSPRCDLKENLLKDNCAPESIEFPVSEARVLEDRPLSDKGSGDSSQVTQVSPQRIALRLRPDDSKNFSIQVRQVEDYPVDIYYLMDLSYSMKDDLWSIQNLGTKLATQMRKLTSNLRIGFGAFVDKPVSPYMYISPPEALENPCYDMKTTCLPMFGYKHVLTLTDQVTRFNEEVKKQSVSRNRDAPEGGFDAIMQATVCDEKIGWRNDASHLLVFTTDAKTHIALDGRLAGIVQPNDGQCHVGSDNHYSASTTMDYPSLGLMTEKLSQKNINLIFAVTENVVNLYQNYSELIPGTTVGVLSMDSSNVLQLIVDAYGKIRSKVELEVRDLPEELSLSFNATCLNNEVIPGLKSCMGLKIGDTVSFSIEAKVRGCPQEKEKSFTIKPVGFKDSLIVQVTFDCDCACQAQAEPNSHRCNNGNGTFECGVCRCGPGWLGSQCECSEEDYRPSQQDECSPREGQPVCSQRGECLCGQCVCHSSDFGKITGKYCECDDFSCVRYKGEMCSGHGQCSCGDCLCDSDWTGYYCNCTTRTDTCMSSNGLLCSGRGKCECGSCVCIQPGSYGDTCEKCPTCPDACTFKKECVECKKFDRGALHDENTCNRYCRDEIESVKELKDTGKDAVNCTYKNEDDCVVRFQYYEDSSGKSILYVVEEPECPKGPDILVVLLSVMGAILLIGLAALLIWKLLITIHDRKEFAKFEEERARAKWDTANNPLYKEATSTFTNITYRGT
modifications: here or on the partner: cyclic peptide (cyclo); f = D-phenylalanine

Δf1: 0.913 Hz
B2: integrin αVβ3 on stable OV-MZ-6 cell transfectants overexpressing integrin αVβ3, P06756 31-1048; P05106 27-788 (receptor)
chain 1: B1 chain 1
chain 2: B1 chain 2
modifications: here or on the partner: cyclic peptide (cyclo); f = D-phenylalanine
